Here are results for 34 substances from patent US20180179296A1.

Experiment [1] addresses D3H44 light chain, wild type (Design 12 L2) (humanized). As to the kind of experiment: light chain competition assay: heavy chain co-expressed with L1 and L2, SPR read-out of light-chain tags; competitor Design 12 L1.
Experiment [2] has as its target Design 12 L1: D3H44 light chain L89R_F98W (humanized). As to the kind of experiment: light chain competition assay: heavy chain co-expressed with L1 and L2, SPR read-out of light-chain tags; competitor Design 12 L2 (WT).
Experiment [3] addresses tissue factor extracellular domains (human) (UniProt P13726). As to the kind of experiment: SPR (ProteOn XPR36), TF immobilised, heterodimer as analyte, 1:1 model.
In experiment [4] the target is Design 11 L2: D3H44 light chain S176L (humanized). As to the kind of experiment: light chain competition assay: heavy chain co-expressed with L1 and L2, SPR read-out of light-chain tags; competitor Design 11 L1.
Experiment [5] has as its target Design 11 L1: D3H44 light chain V133S (humanized). As to the kind of experiment: light chain competition assay: heavy chain co-expressed with L1 and L2, SPR read-out of light-chain tags; competitor Design 11 L2.
The target of experiment [6] is Design 13 L2: D3H44 light chain V133A_Q160K_T178R (humanized). As to the kind of experiment: light chain competition assay: heavy chain co-expressed with L1 and L2, SPR read-out of light-chain tags; competitor Design 13 L1.
Experiment [7] has as its target Design 13 L1: D3H44 light chain Q124E_V133W_Q160E_T180E (humanized). As to the kind of experiment: light chain competition assay: heavy chain co-expressed with L1 and L2, SPR read-out of light-chain tags; competitor Design 13 L2.
The target of experiment [8] is Design 14 L2: D3H44 light chain Q124R_Q160K_T178R (humanized). As to the kind of experiment: light chain competition assay: heavy chain co-expressed with L1 and L2, SPR read-out of light-chain tags; competitor Design 14 L1.
Experiment [9] has as its target Design 14 L1: D3H44 light chain Q124E_Q160E_T178D (humanized). As to the kind of experiment: light chain competition assay: heavy chain co-expressed with L1 and L2, SPR read-out of light-chain tags; competitor Design 14 L2.
The target of experiment [10] is Design 15 L2: D3H44 light chain Q160K_T178R (humanized). As to the kind of experiment: light chain competition assay: heavy chain co-expressed with L1 and L2, SPR read-out of light-chain tags; competitor Design 15 L1.
In experiment [11] the target is Design 15 L1: D3H44 light chain Q124E_Q160E_T178D (humanized). As to the kind of experiment: light chain competition assay: heavy chain co-expressed with L1 and L2, SPR read-out of light-chain tags; competitor Design 15 L2.
Experiment [12] deals with Design 26 L2: D3H44 light chain F116A_S131K_L135A (humanized). As to the kind of experiment: light chain competition assay: heavy chain co-expressed with L1 and L2, SPR read-out of light-chain tags; competitor Design 26 L1.
In experiment [13] the target is Design 26 L1: D3H44 light chain L135W (humanized). As to the kind of experiment: light chain competition assay: heavy chain co-expressed with L1 and L2, SPR read-out of light-chain tags; competitor Design 26 L2.
The target of experiment [14] is Design 27 L2: D3H44 light chain F118W_Q124E_V133S_S176A_T178S_T180E (humanized). As to the kind of experiment: light chain competition assay: heavy chain co-expressed with L1 and L2, SPR read-out of light-chain tags; competitor Design 27 L1.
In experiment [15] the target is Design 27 L1: D3H44 light chain F116A_V133G_S176F_T178A (humanized). As to the kind of experiment: light chain competition assay: heavy chain co-expressed with L1 and L2, SPR read-out of light-chain tags; competitor Design 27 L2.
The target of experiment [16] is Design 28 L2: D3H44 light chain F118W_V133S_S176A_T180E (humanized). As to the kind of experiment: light chain competition assay: heavy chain co-expressed with L1 and L2, SPR read-out of light-chain tags; competitor Design 28 L1.
In experiment [17] the target is Design 28 L1: D3H44 light chain F116A_S131K_V133G_S176F_T178A (humanized). As to the kind of experiment: light chain competition assay: heavy chain co-expressed with L1 and L2, SPR read-out of light-chain tags; competitor Design 28 L2.
Experiment [18] concerns the target Design 29 L2: D3H44 light chain Q124R (humanized). As to the kind of experiment: light chain competition assay: heavy chain co-expressed with L1 and L2, SPR read-out of light-chain tags; competitor Design 29 L1.
In experiment [19] the target is Design 29 L1: D3H44 light chain Q124E_V133D (humanized). As to the kind of experiment: light chain competition assay: heavy chain co-expressed with L1 and L2, SPR read-out of light-chain tags; competitor Design 29 L2.
The target of experiment [20] is Design 30 L2: D3H44 light chain Q160K_T178R (humanized). As to the kind of experiment: light chain competition assay: heavy chain co-expressed with L1 and L2, SPR read-out of light-chain tags; competitor Design 30 L1.
Experiment [21] has as its target Design 30 L1: D3H44 light chain Q124E_Q160E_T180E (humanized). As to the kind of experiment: light chain competition assay: heavy chain co-expressed with L1 and L2, SPR read-out of light-chain tags; competitor Design 30 L2.
Experiment [22] has as its target Design 31 L2: D3H44 light chain Q38D_F116A_L135A (humanized). As to the kind of experiment: light chain competition assay: heavy chain co-expressed with L1 and L2, SPR read-out of light-chain tags; competitor Design 31 L1.
In experiment [23] the target is Design 31 L1: D3H44 light chain Q38R_L135W (humanized). As to the kind of experiment: light chain competition assay: heavy chain co-expressed with L1 and L2, SPR read-out of light-chain tags; competitor Design 31 L2.
For experiment [24], the target named is Design 32 L2: D3H44 light chain Q38E_F98W (humanized). As to the kind of experiment: light chain competition assay: heavy chain co-expressed with L1 and L2, SPR read-out of light-chain tags; competitor Design 32 L1.
Experiment [25] addresses Design 32 L1: D3H44 light chain Q38R (humanized). As to the kind of experiment: light chain competition assay: heavy chain co-expressed with L1 and L2, SPR read-out of light-chain tags; competitor Design 32 L2.

Consider “D3H44 heavy chain, wild type (Design 12 H2)”, for which the H2 Readout in experiment [1] turned out to be 88%; in experiment [2], 15%.

For the substance “Design 11 H1-L1 heterodimer (D3H44 heavy S188L_V190Y, light V133S) (Fab)”, in experiment [3], the Kd was 43 pM.

In the case of “Design 11 H1: D3H44 heavy chain S188L_V190Y”, the H1 Readout in experiment [4] amounted to 24%; in experiment [5], 83%.

As to “Design 11 H2-L2 heterodimer (D3H44 heavy F174V_P175S_S188G, light S176L) (Fab)”, the Kd in experiment [3] turned out to be 40 pM.

Take “Design 11 H2: D3H44 heavy chain F174V_P175S_S188G”: the values for the H2 Readout in experiment [4] and in experiment [5] were 98% and 1%, respectively.

Turning to “Design 12 H1: D3H44 heavy chain V37E_F100D”, the H1 Readout is 10% in experiment [1] and 99% in [2].

The substance “Design 13 H1-L1 heterodimer (D3H44 heavy L143A_D144G_Q179R, light Q124E_V133W_Q160E_T180E) (Fab)” registered a Kd in experiment [3] of 87 pM.

As to “Design 13 H1: D3H44 heavy chain L143A_D144G_Q179R”, the H1 Readout in experiment [6] turned out to be 1%; in experiment [7] it was 104%.

Consider “Design 13 H2-L2 heterodimer (D3H44 heavy K145T_Q179D_S188F, light V133A_Q160K_T178R) (Fab)”, for which the Kd in experiment [3] is 86 pM.

Take “Design 13 H2: D3H44 heavy chain K145T_Q179D_S188F”: the H2 Readout was found to be 87% in [6] and 14% in experiment [7].

With “Design 14 H1: D3H44 heavy chain D148G_S181R”, the H1 Readout stood at 1% in experiment [8] and 84% in experiment [9].

For the substance “Design 14 H2: D3H44 heavy chain K147E_D148G_Q175D_S183L”, the H2 Readout in experiment [8] was determined as 74%; in [9] it was 2%.

For “Design 15 H1-L1 heterodimer (D3H44 heavy D146G_Q175R, light Q124E_Q160E_T178D) (Fab)”, the Kd in experiment [3] turned out to be 82 pM.

With “Design 15 H1: D3H44 heavy chain D146G_Q175R”, the H1 Readout in experiment [10] is 1%; in [11], 93%.

For “Design 15 H2-L2 heterodimer (D3H44 heavy K147T_Q175D_S183L, light Q160K_T178R) (Fab)”, the Kd in experiment [3] was found to be 71 pM.

Turning to “Design 15 H2: D3H44 heavy chain K147T_Q175D_S183L”, the H2 Readout in experiment [10] was determined as 83%; in experiment [11], 24%.

Consider “Design 26 H1: D3H44 heavy chain A139G_V190A”, for which the H1 Readout in [12] was determined as 1%; in [13], 92%.

In the case of “Design 26 H2: D3H44 heavy chain A139W_K145Y_Q175E”, the H2 Readout came to 106% in experiment [12] and 1% in [13].

In the case of “Design 27 H1: D3H44 heavy chain A139I_K145T_D146G_Q179E_S188G_V190S”, the H1 Readout was found to be 1% in experiment [14] and 67% in [15].

In the case of “Design 27 H2: D3H44 heavy chain S186K_S188H_V190G”, the H2 Readout turned out to be 85% in experiment [14] and 12% in [15].

“Design 28 H1: D3H44 heavy chain A139V_K145L_Q179E_S188G_V190S”: the H1 Readout turned out to be 4% in experiment [16] and 85% in [17].

Regarding “Design 28 H2: D3H44 heavy chain A139W_S186K_S188A”, the values for the H2 Readout in [16] and in experiment [17] were 94% and 1%, respectively.

On to “Design 29 H1: D3H44 heavy chain L143K_D146G”, for which the H1 Readout in experiment [18] stood at 1%; in [19] it was 93%.

Turning to “Design 29 H2: D3H44 heavy chain L143E_K145T”, the H2 Readout worked out at 102% in experiment [18] and 1% in experiment [19].

Take “Design 30 H1-L1 heterodimer (D3H44 heavy D146G_Q179K, light Q124E_Q160E_T180E) (Fab)”: the Kd in [3] came to 24 pM.

Regarding “Design 30 H1: D3H44 heavy chain D146G_Q179K”, the H1 Readout in experiment [20] is 1%; in [21], 96%.

“Design 30 H2-L2 heterodimer (D3H44 heavy L143E_K145T, light Q160K_T178R) (Fab)”: the Kd in experiment [3] was 60 pM.

Turning to “Design 30 H2: D3H44 heavy chain L143E_K145T”, the H2 Readout in [20] is 102%; in experiment [21], 1%.

Consider “Design 31 H1-L1 heterodimer (D3H44 heavy Q39D_A139G_V190A, light Q38R_L135W) (Fab)”, for which the Kd in [3] was found to be 25 pM.

With “Design 31 H1: D3H44 heavy chain Q39D_A139G_V190A”, the H1 Readout was 1% in experiment [22] and 106% in experiment [23].

Regarding “Design 31 H2: D3H44 heavy chain Q39R_A139W”, the H2 Readout in experiment [22] amounted to 78%; in [23] it was 1%.

Design 32 H1: D3H44 heavy chain Q39E: the H1 Readout in experiment [24] was determined as 1%; in experiment [25], 98%.

As for Design 32 H2: D3H44 heavy chain Q39R, the H2 Readout is 93% in experiment [24] and 1% in experiment [25].

Turning to “Wild-type D3H44 heterodimer (anti-tissue factor Fab, one heavy chain and one light chain)”, the Kd in [3] came out at 52 pM.

Usually Kd stands for the equilibrium constant for the complex coming apart. A low value points to a tighter complex.
